Results reported in paper doi:10.1101/2021.03.29.437529.

Legend:
[1] = target: PniDAH7PS^Δ5AA, a truncated PniDAH7PS variant with removal of C327-T331 residues (Prevotella nigrescens); experiment: SEC-SAXS
[2] = target: PniDAH7PS, the C-terminal CM-linked 3-deoxy-D-arabino-heptulosonate 7-phosphate synthase (DAH7PS) from Prevotella nigrescens, wild type (Prevotella nigrescens); experiment: SEC-SAXS

Row | stoichiometry N [1] | stoichiometry N [2] | Substance
1 | 2 | – | PniDAH7PS^Δ5AA, a truncated PniDAH7PS variant with removal of C327-T331 residues (enzyme)
2 | – | 2 | PniDAH7PS, the C-terminal CM-linked 3-deoxy-D-arabino-heptulosonate 7-phosphate synthase (DAH7PS) from Prevotella nigrescens, wild type (enzyme)
